Target: the molecule itself
Test: size exclusion chromatography on Superdex 200: activity peaks at 42.4 and 87.5 kD, each a single 42.2 kD polypeptide on SDS-PAGE (self-association)
Procedure: Further purification of the enzyme activity was carried out by Ni2+ affinity chromatography (which binds the poly-histidine tag of the recombinant protein) and size exclusion chromatography. Nickel affinity chromatography was carried out by passing an E. coli extract, prepared as described above, through a column containing NTA-agarose (Novagen “His-Bind Resin”). 5 ml of the resin were washed with 30 ml H₂O, charged with 30 ml NiSO₄ washed with 30 ml H₂O and equilibrated with 30 ml 50 mM Na-phosphate pH 8, 300 mM NaCl. The E. coli pellet was suspended in 50 mM Na-phosphate pH 8, 300 mM NaCl and sonicated. The suspension was centrifuged again (9000 g, 20 min). The supernatant was stirred with the Ni-resin on ice for 1 hour. The suspension was transferred into a column. After settling down the column was washed with 250 ml 50 mM Na-phosphate pH 6 containing 300 mM NaCl an d 10% glycerol. Ni-bound protein was eluted with 500 mM imidazole/50 mM Na-phosphate at pH 6 containing 300 mM NaCl. Fractions were collected and assayed for L-galactose dehydrogenase activity. […] This sample was then subjected to size exclusion chromatography on a Superdex 200 column (Amersham-Pharmacia Biotech) using 25 mM tris-HCl buffer pH 7 containing 150 mM NaCl as eluent Fractions (1 ml) were collected and two peaks of activity corresponding to molecular weights of 42.4 and 87.5 kD were detected. […]

B1: recombinant Arabidopsis thaliana L-galactose dehydrogenase (expressed in E. coli from pRSETB-LgalDH, with poly-histidine tag) (enzyme)
chain: MTKIELRALGNTGLKVSAVGFGASPLGSVFGPVAEDDAVATVREAFRLGINFFDTSPYYGGTLSEKMLGKGLKALQVPRSDYIVATKCGRYKEGFDFSAERVRKSIDESLERLQLDYVDILHCHDIEFGSLDQIVSETIPALQKLKQEGKTRFIGITGLPLDIFTYVLDRVPPGTVDVILSYCHYGVNDSTLLDLLPYLKSKGVGVISASPLAMGLLTEQGPPEWHPASPELKSASKAAVAHCKSKGKKITKLALQYSLANKEISSVLVGMSSVSQVEENVAAVTELESLGMDQETLSEVEAILEPVKNLTWPSGIHQN
notes: The entry describes one subunit; also called recombinant L-galDH; not shown: poly-histidine tag and vector-encoded residues from pRSETB
Does B1 bind?
Result: binds

Source: US20040053235A1 (published 2004)
